The text below walks through data of patent publication US9193965B2, “Acetolactate synthase having 2-ketoisovalerate decarboxylase activity and uses thereof” (The Regents of the University of California, priority 2010, dated 2015).

Substrate in the series: CC(=O)C(=O)O
Nature of the series: purified protein, by the assay type. Conditions: pH 7.0, 37° C., 0.1 mM TPP, ± standard deviation.

Protocol: The wild type AlsS and AlsS variants were synthesized from a His-tag plasmid in E. coli strain BL21 Star™ (DE3) (Invitrogen (Carlsbad, Calif.)) followed by purification with Ni-nitrilotriacetic acid (NTA) spin columns (Qiagen (Valencia, Calif.)). Protein concentrations were determined by the Bradford assay (Bio-Rad (Hercules, Calif.)).
Als enzyme activity. An enzyme assay for Als activity of AlsS was carried out in 1 ml of morpholinepropanesulfonic acid (MOPS) buffer (pH 7.0) containing 80 nM AlsS, 100 mM MOPS (pH 7.0), 1 mM MgCl2, 0.1 mM TPP, 10 mM acetate, and various concentrations of pyruvate at 37° C. for 10 min. The reaction was terminated by acidification of the solution with 0.1 ml of 50% H2SO4. The mixture was incubated for an additional 25 min at 37° C. to allow for the acid hydrolysis of the acetolactate to acetoin. […] One unit of enzyme activity was defined as the amount of enzyme that converts 1 μmol of substrate into product in 1 minute under these conditions. The Km values for pyruvate and the Vmax were extrapolated after nonlinear regression of the experimental points with the Gauss-Newton method using Matlab.

B1: Bacillus subtilis acetolactate synthase AlsS, wild type (Q at residue 487), SEQ ID NO: 2 (Bacillus subtilis subsp. subtilis str. 168) (protein)
chain: VLTKATKEQKSLVKNRGAELVVDCLVEQGVTHVFGIPGAKIDAVFDALQDKGPEIIVARHEQNAAFMAQAVGRLTGKPGVVLVTSGPGASNLATGLLTANTEGDPVVALAGNVIRADRLKRTHQSLDNAALFQPITKYSVEVQDVKNIPEAVTNAFRIASAGQAGAAFVSFPQDVVNEVTNTKNVRAVAAPKLGPAADDAISAAIAKIQTAKLPVVLVGMKGGRPEAIKAVRKLLKKVQLPFVETYQAAGTLSRDLEDQYFGRIGLFRNQPGDLLLEQADVVLTIGYDPIEYDPKFWNINGDRTIIHLDEIIADIDHAYQPDLELIGDIPSTINHIEHDAVKVEFAEREQKILSDLKQYMHEGEQVPADWKSDRAHPLEIVKELRNAVDDHVTVTCDIGSHAIWMSRYFRSYEPLTLMISNGMQTLGVALPWAIGASLVKPGEKVVSVSGDGGFLFSAMELETAVRLKAPIVHIVWNDSTYDMVAFQQLKKYNRTSAVDFGNIDIVKYAESFGATGLRVESPDQLADVLRQGMNAEGPVIIDVPVDYSDNINLASDKLPKEFGELMKTKAL
B1: where the note is “other: wild type”, the Km is 13.6 ± 0.8 mM and the catalytic constant (kcat) was 121 ± 13 s⁻¹.

B2: Bacillus subtilis acetolactate synthase AlsS variant Q487A, SEQ ID NO: 10 (Bacillus subtilis subsp. subtilis str. 168; Q486A) (protein)
chain: VLTKATKEQKSLVKNRGAELVVDCLVEQGVTHVFGIPGAKIDAVFDALQDKGPEIIVARHEQNAAFMAQAVGRLTGKPGVVLVTSGPGASNLATGLLTANTEGDPVVALAGNVIRADRLKRTHQSLDNAALFQPITKYSVEVQDVKNIPEAVTNAFRIASAGQAGAAFVSFPQDVVNEVTNTKNVRAVAAPKLGPAADDAISAAIAKIQTAKLPVVLVGMKGGRPEAIKAVRKLLKKVQLPFVETYQAAGTLSRDLEDQYFGRIGLFRNQPGDLLLEQADVVLTIGYDPIEYDPKFWNINGDRTIIHLDEIIADIDHAYQPDLELIGDIPSTINHIEHDAVKVEFAEREQKILSDLKQYMHEGEQVPADWKSDRAHPLEIVKELRNAVDDHVTVTCDIGSHAIWMSRYFRSYEPLTLMISNGMQTLGVALPWAIGASLVKPGEKVVSVSGDGGFLFSAMELETAVRLKAPIVHIVWNDSTYDMVAFAQLKKYNRTSAVDFGNIDIVKYAESFGATGLRVESPDQLADVLRQGMNAEGPVIIDVPVDYSDNINLASDKLPKEFGELMKTKAL
Turning to B2, where the note is “other: Q487A”, the Km is 8.7 ± 0.5 mM and the catalytic constant (kcat) worked out at 58 ± 8 s⁻¹.

B3: Bacillus subtilis acetolactate synthase AlsS variant Q487S (Bacillus subtilis subsp. subtilis str. 168; Q486S) (protein)
chain: VLTKATKEQKSLVKNRGAELVVDCLVEQGVTHVFGIPGAKIDAVFDALQDKGPEIIVARHEQNAAFMAQAVGRLTGKPGVVLVTSGPGASNLATGLLTANTEGDPVVALAGNVIRADRLKRTHQSLDNAALFQPITKYSVEVQDVKNIPEAVTNAFRIASAGQAGAAFVSFPQDVVNEVTNTKNVRAVAAPKLGPAADDAISAAIAKIQTAKLPVVLVGMKGGRPEAIKAVRKLLKKVQLPFVETYQAAGTLSRDLEDQYFGRIGLFRNQPGDLLLEQADVVLTIGYDPIEYDPKFWNINGDRTIIHLDEIIADIDHAYQPDLELIGDIPSTINHIEHDAVKVEFAEREQKILSDLKQYMHEGEQVPADWKSDRAHPLEIVKELRNAVDDHVTVTCDIGSHAIWMSRYFRSYEPLTLMISNGMQTLGVALPWAIGASLVKPGEKVVSVSGDGGFLFSAMELETAVRLKAPIVHIVWNDSTYDMVAFSQLKKYNRTSAVDFGNIDIVKYAESFGATGLRVESPDQLADVLRQGMNAEGPVIIDVPVDYSDNINLASDKLPKEFGELMKTKAL
Consider B3, for which, for the setting “other: Q487S”, the Km is reported as 1.1 ± 0.6 mM and the kcat worked out at 11 ± 6 s⁻¹.

B4: Bacillus subtilis acetolactate synthase AlsS variant Q487G (Bacillus subtilis subsp. subtilis str. 168; Q486G) (protein)
chain: VLTKATKEQKSLVKNRGAELVVDCLVEQGVTHVFGIPGAKIDAVFDALQDKGPEIIVARHEQNAAFMAQAVGRLTGKPGVVLVTSGPGASNLATGLLTANTEGDPVVALAGNVIRADRLKRTHQSLDNAALFQPITKYSVEVQDVKNIPEAVTNAFRIASAGQAGAAFVSFPQDVVNEVTNTKNVRAVAAPKLGPAADDAISAAIAKIQTAKLPVVLVGMKGGRPEAIKAVRKLLKKVQLPFVETYQAAGTLSRDLEDQYFGRIGLFRNQPGDLLLEQADVVLTIGYDPIEYDPKFWNINGDRTIIHLDEIIADIDHAYQPDLELIGDIPSTINHIEHDAVKVEFAEREQKILSDLKQYMHEGEQVPADWKSDRAHPLEIVKELRNAVDDHVTVTCDIGSHAIWMSRYFRSYEPLTLMISNGMQTLGVALPWAIGASLVKPGEKVVSVSGDGGFLFSAMELETAVRLKAPIVHIVWNDSTYDMVAFGQLKKYNRTSAVDFGNIDIVKYAESFGATGLRVESPDQLADVLRQGMNAEGPVIIDVPVDYSDNINLASDKLPKEFGELMKTKAL
In the case of B4, where the note is “other: Q487G”, the Michaelis-Menten constant (Km) worked out at 1.6 ± 0.4 mM and the turnover number (kcat) came to 11 ± 5 s⁻¹.
